In the nanobody polyreactivity screen of Harvey et al. (2022):

Test: yeast display, Sf9 membrane polyspecificity reagent, FACS + sequencing; frameworks hold sequencing errors
Procedure, shortened: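 Using colony PCR, genes from sorted yeast display clones were amplified, then sequenced on MiSeq at 2 × 250 and filtered by CDR length. The clones had been stained with 10% biotinylated, detergent-solubilized Sf9 membrane reagent for 1 hour at 4 °C and sorted by FACS into low and high (top ~1%) gates on anti-HA and streptavidin fluorescence. Polyreactivity labels come from the gate of origin.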

**Q.** For “QVQLVESGGGLVQAGGSLRLSCAAYGRIFYAYAMGWYRQAPGKERELVAAITNGGGTTYYADSVKGRFTISRDNAKNTVYLQMNSLKPEDTAVYYCNAVRYTIAHGFYYVPEDYWGQGTQVTVSS”, which “polyreactivity (PSR sort gate)” value is on record?
**A.** low polyreactivity

**Q.** For “QVQLVESGGGLVQAGGSLRLSCAAYGRIFYRNAMGWYRQAPGKERELVAAISRSGGSTYYADSVKGRFTISRDNAKNTVYLQMNSLNPEDTAVYYCNAYRYLQSGPPRYREHGSWGQGTQVTVSS”, which “polyreactivity (PSR sort gate)” value is on record?
**A.** low polyreactivity

**Q.** For “QVQLVESGGGLVQAGGSLRLSCAAYGRIFYYNRMGWYRQAPGKERELVADISFSDGSTYYADSVKGRFTISRDIAKNTVYLQMNSLKPEDTAVYYCAAVIGYDYDYWGQVTQVTVSS”, which “polyreactivity (PSR sort gate)” value is on record?
**A.** low polyreactivity

**Q.** With “QVQLVESGGGLVQAGGSLRLSCAAYGRIIYLNAMGWYRQAPGKERELVATISSSGGTTNYADSVKGRFTISRDNAKNTVYLQMNSLKPEDTAVYYCAAKFVGTTVSEYGYWGQGTQVTVSS” as the sequence, how does the “polyreactivity (PSR sort gate)” value read?
**A.** low polyreactivity

**Q.** Which “polyreactivity (PSR sort gate)” value does the source give for “QVQLVESGGGLVQAGGSLRLSCAAYGRILSLYAMGWYRQAPGKERQLVAAIRWSGSRTYYADSVKGRFTISRDNAKNTVYLQMNSLKPEDTAVYYCAARDSTNLLSGYTHYYWGQGTQVTVSS” here?
**A.** high polyreactivity

**Q.** With “QVQLVESGGGLVQAGGSLRLSCAAYGRTFARYAMGWYRQAPGKERELVAAISKSGVSTYYADSVKGRFTISRDHAKNTLYLQMNSLKPEDTAVYYCAAYVRQLQVVRGVSNYDSWGQGTQVTVSS” as the sequence, how does the “polyreactivity (PSR sort gate)” value read?
**A.** high polyreactivity

**Q.** With “QVQLVESGGGLVQAGGSLRLSCAAYGRTFDTYAMGGYRQAPGKERELVAAITKGGGSTYYADSVKGRFTISRDNAKNTVYLQMNSLKPEDTAVYYCNDRVHGEYFHGIRYYYWGQGTQVTVSS” as the sequence, how does the “polyreactivity (PSR sort gate)” value read?
**A.** low polyreactivity

**Q.** For “QVQLVESGGGLVQAGGSLRLSCAAYGRTFGLNAMGWYRQAPGKERELVAAISSSGGSTYYADSVKGRFTISRDNAKNTVYLQMNSLKPEDTAVYYCARVPLHRYGYWGQGTQVNVSS”, which “polyreactivity (PSR sort gate)” value is on record?
**A.** high polyreactivity

**Q.** For “QVQLVESGGGLVQAGGSLRLSCAAYGRTFGRYAMGWYRQAPGKERELVAVINGGGSTYYADSVKGRFTISRDNAKNTVYLQMNSLKPEDTAVDYCAVGGYTRTGGWFDYWGQGTQVTVSS”, which “polyreactivity (PSR sort gate)” value is on record?
**A.** high polyreactivity

**Q.** For “QVQLVESGGGLVQAGGSLRLSCAAYGRTFGYNTMGWYRQAPGKERELVATIRTNGVSTYYADSVKGRFTISRDNAKNTVYLQMNSLKPEDTAVYYCNADPHDQYDYWGQGTQVTVSS”, which “polyreactivity (PSR sort gate)” value is on record?
**A.** low polyreactivity

**Q.** With “QVQLVESGGGLVQAGGSLRLSCAAYGRTFWNYAMGWYRQAPGKERELVAAISSSGGTTYYADSVKGRFTISRDNAKNTVYLQMNSLKPEDTAVYYCAATGVSKPQRSFVYWGQGTQVTVSS” as the sequence, how does the “polyreactivity (PSR sort gate)” value read?
**A.** low polyreactivity

**Q.** For “QVQLVESGGGLVQAGGSLRLSCAAYGRTLRYYAMGWYRQAPGKERELVAAISSGGTTNYADSVKGRFTISRDNAKNTVYLQMNSLKPEDTAVYYCAARYRRFRFTQYDYWGQGTQVTVSS”, which “polyreactivity (PSR sort gate)” value is on record?
**A.** high polyreactivity

**Q.** For “QVQLVESGGGLVQAGGSLRLSCAAYGRTSRRNAMGWYRQAPGKERELVAAINRTGGTTYYADYVKGRFTISRDNAKNTVYLQMNSLKPVVNAVYYCAAGAPLSTPRGTTYRYYYWGQGTQVTVSS”, which “polyreactivity (PSR sort gate)” value is on record?
**A.** high polyreactivity

**Q.** For “QVQLVESGGGLVQAGGSLRLSCAAYGSIFALYAMGWYRPAPGKERELVARISSGGSTYYADSVKGRFTISRDNAKNTVYLQMNSLKPEDTAVYYCARYHKTHAVLRYDYWGQGTQVTVSS”, which “polyreactivity (PSR sort gate)” value is on record?
**A.** low polyreactivity

**Q.** With “QVQLVESGGGLVQAGGSLRLSCAAYGSIFGVNVMGWYRQSPGKERELVAAIDVSDTSTYYADSVKGRFTMSRDNAKNTVYLQLNSLKPDDTAVYYCAADGLRWWPFEYRFTFDYWGQGTQVTVSS” as the sequence, how does the “polyreactivity (PSR sort gate)” value read?
**A.** low polyreactivity

**Q.** Which “polyreactivity (PSR sort gate)” value does the source give for “QVQLVESGGGLVQAGGSLRLSCAAYGSIFKRYAMGWYRQAPGKERELVASNSSSGSSTNYADSVKGRFTISRDTAKNTVYLQMNSLKPEDTSVYYCAADTKASGTPVYYSYLYDYWGQGTHVTVSS” here?
**A.** high polyreactivity

**Q.** With “QVQLVESGGGLVQAGGSLRLSCAAYGSIFWSYAMGWYIQAPGKERELVAGITRSGGSTYYSDSVKGRFTISRDNAKNPVYLQMISLKPEDTAVYYCNKAFGGDKYSGSYEYWGQGNQVTVSS” as the sequence, how does the “polyreactivity (PSR sort gate)” value read?
**A.** high polyreactivity
